Target: SoP450 from Shimazuella soli (CPR-containing self-sufficient cytochrome P450, homologue of P450BM3) (Shimazuella soli)
Assay: SEC

stoichiometry N: 2
Substance: SoP450 from Shimazuella soli (CPR-containing self-sufficient cytochrome P450, homologue of P450BM3) (enzyme)

Source: article doi:10.1101/2025.11.29.689641
